According to patent US20130324474A1 (Eli Lilly, published 2013):

T1: Recombinant Human GFRα-1/GDNF Rα-1 Fc Chimera (human, UniProt P56159 25-429)
T1 construct: Purchased Fc chimera; It was captured on protein A in Biacore and coated on the plate in ELISA; also called GFRα1-Fc; recombinant human GFRα1-Fc chimera, carrier-free; not shown: Fc part of a purchased Fc chimera
T1 sequence (looked up): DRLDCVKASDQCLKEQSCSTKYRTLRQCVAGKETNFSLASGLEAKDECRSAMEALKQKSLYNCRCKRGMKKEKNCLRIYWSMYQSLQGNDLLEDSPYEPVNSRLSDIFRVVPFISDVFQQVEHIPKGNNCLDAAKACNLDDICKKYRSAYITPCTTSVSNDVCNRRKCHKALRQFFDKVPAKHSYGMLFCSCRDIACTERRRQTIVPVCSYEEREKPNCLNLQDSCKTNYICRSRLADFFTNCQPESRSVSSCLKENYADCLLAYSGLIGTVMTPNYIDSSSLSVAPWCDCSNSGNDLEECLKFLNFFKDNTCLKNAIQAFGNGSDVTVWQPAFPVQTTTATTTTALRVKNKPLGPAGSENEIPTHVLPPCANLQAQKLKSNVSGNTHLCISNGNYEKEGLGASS

T2: Recombinant Human GFRα-2/GDNF Rα-2 Fc Chimera (human, UniProt O00451 22-441)
T2 construct: Purchased Fc chimera; not shown: Fc part of a purchased Fc chimera
T2 sequence (looked up): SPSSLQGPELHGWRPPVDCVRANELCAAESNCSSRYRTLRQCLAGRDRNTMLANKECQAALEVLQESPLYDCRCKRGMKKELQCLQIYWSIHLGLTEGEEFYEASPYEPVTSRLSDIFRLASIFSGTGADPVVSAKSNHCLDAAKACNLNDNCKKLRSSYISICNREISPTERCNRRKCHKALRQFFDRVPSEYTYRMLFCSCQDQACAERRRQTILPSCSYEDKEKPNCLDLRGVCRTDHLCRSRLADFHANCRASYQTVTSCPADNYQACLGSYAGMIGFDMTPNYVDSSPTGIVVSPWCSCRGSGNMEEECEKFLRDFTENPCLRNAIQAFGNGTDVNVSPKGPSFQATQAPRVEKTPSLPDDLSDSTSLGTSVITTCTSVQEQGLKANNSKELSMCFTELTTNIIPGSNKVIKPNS


Experiments:
human c-Ret = human c-Ret (human, UniProt P07949 29-1114, phosphorylation at Y1016 is the readout); test: cell-based or functional assay
[1] = target: T1, Recombinant Human GFRα-1/GDNF Rα-1 Fc …; test: ELISA, plate-bound human GFRα1-Fc; 4 C sample
Procedure: GDNF wild type and variants are tested in an ELISA assay, in which binding of the GDNF proteins to the plate-bound receptor (GFRα1) is measured. A “no GDNF” condition and/or an “irrelevant protein” condition are used as negative controls.
Each well of a 96-well plate (Greiner 655081 Immunobind ELISA plates) is coated with 70 μl of human GFRα1 (recombinant human GFRα1-Fc chimera, carrier-free) at 1 μg/ml in carbonate buffer, pH 9.6. If an irrelevant receptor is coated, it is an irrelevant Fc chimera and is coated at the same concentration as GFRα1. The plates are sealed and incubated at 4° C. overnight. The wells are aspirated and washed twice with washing buffer (20 mM Tris (hydroxymethyl) aminomethane, pH 7.4, 0.15 M NaCl, 0.1% Tween-20), using an automatic plate washer. The plates are blocked with 200 μl blocking buffer per well (3% Carnation Instant milk in the above washing buffer) for at least 1 hour at room temperature. Plates are washed twice with washing buffer.
GDNF proteins are serially diluted into blocking buffer at an appropriate concentration range, typically beginning at 5 μg/ml and serially diluting 1:10. A no GDNF control is used, which consists of blocking buffer alone. 50 μl of each GDNF solution is added to the GFRα1 coated wells in triplicate. The plates are incubated for 1.5 hours at room temperature. The wells are then washed 3 times with washing buffer.

[2] = target: T1, Recombinant Human GFRα-1/GDNF Rα-1 Fc …; test: Biacore (SPR), GFRα-1; 4 C sample of the 4-week stability comparison
[3] = target: T1, Recombinant Human GFRα-1/GDNF Rα-1 Fc …; test: SPR (Biacore 2000), GFRα1-Fc captured on protein A, GDNFv as analyte, 1:1 Langmuir, 25 C
Procedure: (§1) A Biacore® 2000 instrument is used to measure the binding kinetics of GDNFv to human and rat GDNF family receptors (GFRα1 and GFRα2). Measurements are performed at 25° C. Samples are dissolved in HBS-EP buffer (150 mM sodium chloride, 3 mM EDTA, 0.005% (w/v) surfactant P-20, pH 7.4). Protein A, Staphylococcus aureus is immobilized on flow cells 1 to 4 of a CM4 sensor chip (GE Healthcare #BR-1005-39) at a level of ˜200 response units (RUs) using amine coupling chemistry to capture GFR Fc chimera (Recombinant Human GFRα-1/GDNF Rα-1 Fc Chimera; Recombinant Human GFRα-2/GDNF Rα-2 Fc Chimera; Recombinant Rat GFRα-1/GDNF Rα-1 Fc Chimera; Recombinant Mouse GFRα-2/GDNF Rα-2 Fc Chimera).
(§2) Binding is evaluated using multiple cycles. Each cycle consists of the following steps: 1) injection of about 10 μL of GFR at a concentration of ˜1.0 μg/mL and a flow rate of 10 μL/min., aiming at a capture of 120-150 RUs; 2) injection of 250 μL of GDNFv at a flow rate of 50 μL/min., in a final concentration rage between 10 nM and 0.04 nM followed by […]. for dissociation; and 3) regeneration using about 30 μL of 10 mM glycine hydrochloride, pH 1.5. Association and dissociation rates for each cycle are evaluated using a “1:1 (Langmuir) binding” model in the BIAevaluation software, version 4.1.

[4] = target: T2, Recombinant Human GFRα-2/GDNF Rα-2 Fc …; test: SPR (Biacore 2000), human GFRα2-Fc captured on protein A, GDNFv as analyte, 1:1 Langmuir, 25 C
Procedure: as §1, §2

Chain of human c-Ret (P07949 29-1114): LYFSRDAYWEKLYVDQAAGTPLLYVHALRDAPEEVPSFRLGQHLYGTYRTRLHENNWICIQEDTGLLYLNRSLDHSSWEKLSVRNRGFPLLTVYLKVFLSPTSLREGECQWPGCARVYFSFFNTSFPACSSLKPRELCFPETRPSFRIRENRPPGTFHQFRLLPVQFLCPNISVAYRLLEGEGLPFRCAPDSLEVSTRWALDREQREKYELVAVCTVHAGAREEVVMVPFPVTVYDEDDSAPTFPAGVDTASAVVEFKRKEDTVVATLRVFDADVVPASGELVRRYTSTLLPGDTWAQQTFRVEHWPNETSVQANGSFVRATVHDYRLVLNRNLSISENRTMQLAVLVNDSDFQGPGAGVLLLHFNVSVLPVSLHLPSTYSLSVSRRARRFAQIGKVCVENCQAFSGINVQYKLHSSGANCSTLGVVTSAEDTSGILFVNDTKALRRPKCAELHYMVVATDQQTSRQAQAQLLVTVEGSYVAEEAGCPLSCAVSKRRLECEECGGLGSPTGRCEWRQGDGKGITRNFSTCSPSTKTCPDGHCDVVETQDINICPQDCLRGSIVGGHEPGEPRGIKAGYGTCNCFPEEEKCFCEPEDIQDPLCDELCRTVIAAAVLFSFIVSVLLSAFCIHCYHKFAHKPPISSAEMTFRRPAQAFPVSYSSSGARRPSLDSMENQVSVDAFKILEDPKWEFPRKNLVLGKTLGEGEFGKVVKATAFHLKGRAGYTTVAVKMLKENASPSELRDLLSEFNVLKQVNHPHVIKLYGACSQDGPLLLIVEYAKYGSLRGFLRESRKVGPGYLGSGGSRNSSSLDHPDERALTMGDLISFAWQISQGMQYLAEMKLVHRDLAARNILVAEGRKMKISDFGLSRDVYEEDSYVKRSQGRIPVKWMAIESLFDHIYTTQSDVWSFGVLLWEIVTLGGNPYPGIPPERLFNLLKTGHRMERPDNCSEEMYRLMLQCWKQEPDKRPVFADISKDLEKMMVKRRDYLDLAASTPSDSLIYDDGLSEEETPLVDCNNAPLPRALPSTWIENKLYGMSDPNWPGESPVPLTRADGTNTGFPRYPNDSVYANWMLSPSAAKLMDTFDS

Row | c-Ret phosphorylation at Y1016, EC50 (human c-Ret) | EC50 [1] | Kd [2] | Kd [3] | koff [3] | kon [3] | Kd [4] | koff [4] | kon [4] | Binder
1 | 0.008 to 0.015 µg/mL | 0.6 nM | 0.029 nM | 0.029 nM | 9e-05 s⁻¹ | 3.8e+06 M⁻¹ s⁻¹ | 0.047 nM | 0.00025 s⁻¹ | 5.3e+06 M⁻¹ s⁻¹ | CHO-Δ31-GDNF (SEQ ID NO: 8) (ligand, N-glycosylated at N49 (numbering of mature GDNF), Expressed in CHO cells; also called CHO-Δ31-GDNFv; WT CHO Δ31-GDNFv) RGQRGKNRGCVLTAIHLNVTDLGLGYETKEELIFRYCSGSCDAAETTYDKILKNLSRNRRLVSDKVGQACCRPIAFDDDLSFLDDNLVYHILRKHSAKRCGCI
2 | 0.008 to 0.015 µg/mL | 0.8 nM | 0.03 nM | 0.03 nM | 0.00011 s⁻¹ | 4.5e+06 M⁻¹ s⁻¹ | 0.047 nM | 0.00035 s⁻¹ | 7.6e+06 M⁻¹ s⁻¹ | CHO-Δ31-N38Q-D95E-GDNF (SEQ ID NO: 9) (ligand, N-glycosylated at N49 (numbering of mature GDNF), Expressed in CHO cells; also called CHO-Δ31-N38Q-D95E-GDNFv; GDNF variant 2) RGQRGKQRGCVLTAIHLNVTDLGLGYETKEELIFRYCSGSCDAAETTYDKILKNLSRNRRLVSEKVGQACCRPIAFDDDLSFLDDNLVYHILRKHSAKRCGCI
